From patent US20210163591A1 (TEL HASHOMER MEDICAL RESEARCH INFRASTRUCTURE AND SERVICES, published 2021)

Key:
[1] = target: T1, human GABRA2 (SEQ ID NO: 21) (human, UniProt P47869 29-251); assay: Biacore SPR, antibody immobilized on CM5 chip, GABRA2 as analyte, single-cycle kinetics
T1 construct: The Biacore method says only 'Diluted GABRA2'; I took it to be the same antigen; also called GABRA2 protein; human GABRA2 antigen
T1 sequence: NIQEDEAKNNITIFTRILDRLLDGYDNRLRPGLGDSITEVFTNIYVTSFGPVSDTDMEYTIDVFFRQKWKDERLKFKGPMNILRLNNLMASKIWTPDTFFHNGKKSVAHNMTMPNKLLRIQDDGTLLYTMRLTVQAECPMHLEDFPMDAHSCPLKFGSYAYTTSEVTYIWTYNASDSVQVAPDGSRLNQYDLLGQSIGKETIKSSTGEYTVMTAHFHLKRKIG
Method: (§1) Biacore analysis—Antibody was immobilized onto a CM5 sensor chip (Cat No. BR-1005-30) under 25° C. while HBS-EP was used as the running buffer. The sensor chip surface of flow cells 1 and 2 were activated by freshly mixed 50 mmol/1 N-Hydroxysuccinimide (NHS) and 200 mmol/I 1-ethyl-3-(3-dimethylaminopropyl) carbodiimide hydrochloride (EDC) for 200s ([…]). Afterwards, the antibody diluted in 10 mml/l NaAC (pH 4.5) was injected into flow cell 2 to achieve conjugation of 300 Response Unit respectively, while flow cell 1 was set as blank. After the amine coupling reaction, the remaining active coupling sites on chip surface were blocked with 200s injection of 1 mol/l ethanolamine hydrochloride. […] Diluted GABRA2 was injected over the surface as association phase, followed by injecting running buffer as dissociation phase. Data was processed using the Biacore 8K Evaluation software version 1.1. Flow cell 1 and blank injection of buffer in each cycle were used as double reference for Response Unit subtraction.

[2] = target: T1, human GABRA2 (SEQ ID NO: 21); assay: Biacore SPR, antibody immobilized on CM5 chip, GABRA2 as analyte, single-dose kinetics
Method: as §1

B1: antibody U6882DH130_13, purified from hybridoma 10C5B9 (antibody, V domains shown)
VH: EVQLQQSGAELVKPGASVKLSCTASGFNIKDTYMYWVKQRPEQGLEWIGRIDPANGNTKYDPKFQGKATITADTSSNTAYLQLSSLTSEDTAVYYCASNYYGSFDYWGQGTTLTVSS
VL: DIQMTQTTSSLSASLGDRVTISCRASQDISNYLNWYQQKPDGTVKLLIYYTSRLHSGVPSRFSGSGSGTDYSLTISNLEQEDIATYFCQQGNTLPPTFGGGTKLEIK
notes: also called U6882DH130_13 Antibody; Antibody from clone10C5B9
For B1, the Kd [1] was 388 pM, the koff [1] was 5.42e-05 s⁻¹ and the kon [1] was 140000 M⁻¹ s⁻¹. For the same binder, the Kd [2] was 251 pM, the koff [2] was 1.58e-05 s⁻¹ and the kon [2] was 62800 M⁻¹ s⁻¹.
